Among the data in paper PMC10563049 are binding activity (binding probability by AFM) values, retold here.

For this assay, the target named is recombinant VE-cadherin-Fc (UniProt P33151). Kind of assay: atomic force microscopy.

Consider “recombinant VE-cadherin-Fc (from UniProt P33151) (Fc fusion)”, for which the binding activity (binding probability by AFM) stood at 61%.
